In the supplement of paper PMC10567573:
± gives the standard deviation.

Assay: protein stability index of a GFP-peptide fusion (GPS, HEK-293T) (PSI 1-6); higher = more stable
[1] = treatment: DMSO, c terminus: a fixed tail appended
[2] = treatment: MLN4924 1 uM, 8 h, c terminus: a fixed tail appended
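Note: 24-mer peptide tiles fused after GFP, lentivirally expressed, FACS-sorted into six equal bins by GFP/DsRed ratio, decoded by Illumina sequencing, PSI is the read-weighted mean bin number.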

Sequence	protein stability index [1]	protein stability index [2]	protein stability index (treatment: DMSO, c terminus: native)	protein stability index (treatment: MLN4924 1 uM, 8 h, c terminus: native)
DGEVPQHAGKKGKLSEHLRYCDSI [BRD3]	4.59 ± 0.23	4.76 ± 0.23		
DGLREQLQAPVPPDSVPSLQNMGL [PBXIP1]	4.45 ± 0.1	4.4 ± 0.15		
DIELDAARGDAVCTACGSVLEDNI [BRF1]	4.88 ± 0.15	5.01 ± 0.37		
DIEMSMRGDIFERIVHLQETCDLG [NLN]	3.26 ± 0.47	3.22 ± 0.36		
DIKICALGEEWSLHKIYLCQSGYF [GMCL1]	2.91 ± 0.62	2.62 ± 0.49		
DITVSVSTSFLPELSSVHPPHYFF [FBXO3]	2.79 ± 0.48	2.63 ± 0.58		
DKFVIVDCRYPYEYEGGHIKTAVN [CDC25B]	2.48 ± 0.28	2.21 ± 0.23		
DKSEYLEMEEGVKESLCAKEEKCQ [KCNA4]	5.68 ± 0.1	5.54 ± 0.19		
DKYVGVSSDSVGGFRYSERYDPEP [CLINT1]	4.22 ± 0.23	4.27 ± 0.35		
DLESQVESLREELICLKKNHEEEV [KRT34]	4.86 ± 0.24	5.13 ± 0.16		
DLLKKAKFHHSDCLSTWLLHFIAT [RHOBTB3]	2.37 ± 0.44	2.34 ± 0.41		
DLLSCSNFAVQHRYLFEEDNLLRS [MATN2]	2.42 ± 0.18	2.43 ± 0.47		
DLPSSLLLPEDMALRNLPPLRAAH [SMG5]	3.56 ± 0.29	3.44 ± 0.16		
DLSVPLMDVGETAMVTADSKYCYG [FKBP8]	4.1 ± 0.31	4.44 ± 0.22		
DMERFMEEMRELRRKIRELQLRYS [BEX5]	2.44 ± 0.36	2.56 ± 0.6		
DMKYGIYAVENEHMNRLQSQRAML [VTI1B]	2.72 ± 0.25	2.93 ± 0.31		
DQEPLLSIDLGTAHSAAVTASGDC [NEK8]	5.07 ± 0.32	5.17 ± 0.26		
DRDPNSLLISCAVSYRGAWWYRNC [TNXB]	2.83 ± 0.24	2.77 ± 0.98		

Sequence	protein stability index [1]	protein stability index [2]	protein stability index (treatment: DMSO, c terminus: native)	protein stability index (treatment: MLN4924 1 uM, 8 h, c terminus: native)
DREVDAATSATSHTRSLNSIIHQM [FBF1]	4.09 ± 0.15	4.21 ± 0.28		
DSSNPYPNFNFNISHQGDYAVLAA [AASDHPPT]	3.24 ± 0.36	3.42 ± 0.41		
DSTLSYTETEATNSLITAPGEFSD [SMAD6]	5.34 ± 0.2	5.39 ± 0.17		
DSTWLLLRRIRAESGTKGLFAGFL [SLC25A39]	2.63 ± 0.67	2.58 ± 0.53		
DTKGKPTSRTQVYKPPALKKSNSP [ZC2HC1A]	4.89 ± 0.22	4.94 ± 0.18		
DTRLGQVSALPLPPAMKRYLLYQ [SPSB2]			2.4 ± 0.42	2.69 ± 0.3
DTRSGFWYVCRTQGVEGDHCVTSD [TRIM35]	2.89 ± 0.31	3.08 ± 0.34		
DVGENLTVPDEFTVEERQTGMWWR [SLC25A25]	4.18 ± 0.14	4.16 ± 0.28		
DYELLQMLQIVVGVRDSGSPPLHA [PCDHGC5]	2.3 ± 0.41	2.18 ± 0.17		
DYSREVNTTEELEALITDPDEMRM [FEM1A]	5.11 ± 0.21	5.17 ± 0.18		
EAFKKHSLDLLSKERELNGKLRHL [CCDC89]	3.34 ± 0.25	3.38 ± 0.14		
EAMLYHNQTAELRELLEFTHMYLQ [P3H4]	2.48 ± 0.37	2.69 ± 0.62		
EDDDWGEDTTEEAQRRRMDEISDH [EIF5]	5.59 ± 0.24	5.34 ± 0.18		
EDERVVGKEQGQNLARQWNNCAFL [RAP1B]	4.23 ± 0.23	4.09 ± 0.25		
EDGVWYSVAPMNVRRGLAGATTLG [KLHL12]	3.17 ± 0.23	3.3 ± 0.17		
EDIVFETDHILESLYRDIRDIQDE [STX11]	4.08 ± 0.12	4.31 ± 0.14		
EDNEREGTENGAIDAVPVDENLFT [ZC3H15]	5.54 ± 0.15	5.68 ± 0.23		
EDWVLLGMANGQQWLQSTSGSQRH [TLE6]	3.41 ± 0.5	3.2 ± 0.4		
